The results in this text go back to PMC8748511 (2022).

The target of the assay is SARS-CoV-2 spike receptor binding domain (RBD) (SARS-CoV-2, UniProt P0DTC2). The experiment in a line: SPR. For orientation: Surface plasmon resonance follows binding to a sensor surface in real time, without labels.

B1: Fu2 (VHH)
VHH: QVQLVESGGGLVQPGGSLRLSCAASGFTLDDYAIGWFRQAPGKEREGVSFITSSDGSTYYVDSVKGRFTISRDNAKNTVYLQMNSLTPEDTAIYYCAVGPSFSYTGSTYYRSELPWDYDYWGQGTQVTVSS
As a reminder, the Kd is the free concentration of one partner at which half of the binding sites on the other are occupied at equilibrium, for simple one-to-one binding. Molecule B1 displayed a dissociation constant Kd of 0.118 nM.
